A word on the EC50: it is the concentration that produces a half-maximal response.

The target of test [1] is T1, CD3 expressed on cell-surface of primary human T cells (human, UniProt P07766 23-207; P04234 22-171).
T1 construct: also called cell-surface CD3; human CD3
The test is described as follows: flow cytometry on PBMCs, % anti-huIgG+ CD8+ cells, donor hu 151. On the technique in general: Flow cytometry measures light scatter and fluorescence of single cells or particles in a stream.
Experimental: (§1) Briefly, PBMCs from healthy human donors and healthy rhesus or cynomolgus monkey donors were incubated with different concentrations of HIV×CD3 bispecific molecules for 1 hour at RT. […] Cells were then washed, fixed/permeabilized, and analyzed on BD LSRFortessa. The percentage of α-huIgG-APC-positive CD4+ and CD8+ T cells and the mFI of the α-huIgG-APC of CD4+ and CD8+ cells were collected, and data analyzed using GraphPad Prism.

Test [2] deals with T1, CD3 expressed on cell-surface of …. The experiment in a line: flow cytometry on PBMCs, % anti-huIgG+ CD4+ cells, donor hu 340.
Experimental: as §1
Test [3] has as its target CD3 on rhesus monkey T cells in PBMCs (rhesus monkey). The experiment in a line: flow cytometry on PBMCs, % anti-huIgG+ CD4+ cells, donor rh 3483.
Test [4] has the same target. The test is described as follows: flow cytometry on PBMCs, % anti-huIgG+ CD8+ cells, donor rh 3563.
For test [5] the target is unchanged. The test is described as follows: flow cytometry on PBMCs, % anti-huIgG+ CD8+ cells, donor rh 3483.
Test [6] has the same target. The experiment in a line: flow cytometry on PBMCs, % anti-huIgG+ CD4+ cells, donor rh 3563.
Test [7] concerns the target T1, CD3 expressed on cell-surface of …. The experiment in a line: flow cytometry on PBMCs, % anti-huIgG+ CD4+ cells, donor hu 151.
The target is the same in test [8]. The experiment in a line: flow cytometry on PBMCs, % anti-huIgG+ CD8+ cells, donor hu 340.
Experimental: as §1

T1 sequence (P07766 23-207 limits assumed, chain 1 of 2): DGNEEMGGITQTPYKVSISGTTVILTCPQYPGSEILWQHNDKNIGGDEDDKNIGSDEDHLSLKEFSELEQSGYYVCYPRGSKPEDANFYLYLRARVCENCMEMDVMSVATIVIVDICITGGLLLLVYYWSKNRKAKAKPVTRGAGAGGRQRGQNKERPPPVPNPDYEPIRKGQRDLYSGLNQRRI
T1 sequence (P04234 22-171 limits assumed, chain 2 of 2): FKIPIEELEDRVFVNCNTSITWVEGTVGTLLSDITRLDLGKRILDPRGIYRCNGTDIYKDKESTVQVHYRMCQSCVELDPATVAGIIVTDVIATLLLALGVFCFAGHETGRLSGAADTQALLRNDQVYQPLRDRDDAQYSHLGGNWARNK
Chain of CD3 on rhesus monkey T cells in PBMCs (rhesus monkey) (P16003 26-458): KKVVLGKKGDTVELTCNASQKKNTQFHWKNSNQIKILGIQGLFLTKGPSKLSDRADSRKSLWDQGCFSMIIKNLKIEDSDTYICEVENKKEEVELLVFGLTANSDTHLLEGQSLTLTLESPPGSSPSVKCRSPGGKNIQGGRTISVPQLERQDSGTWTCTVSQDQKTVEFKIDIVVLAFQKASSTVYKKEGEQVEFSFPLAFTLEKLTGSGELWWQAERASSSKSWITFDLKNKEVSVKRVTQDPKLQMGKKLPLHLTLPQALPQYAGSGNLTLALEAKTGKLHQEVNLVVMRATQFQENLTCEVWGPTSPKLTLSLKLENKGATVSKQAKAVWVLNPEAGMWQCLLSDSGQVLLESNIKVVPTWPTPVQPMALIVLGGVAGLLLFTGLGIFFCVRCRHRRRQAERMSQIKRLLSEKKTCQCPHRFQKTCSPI

B1: hPGT121.66 AAS + W/huSP34.3.8 scFv AAS + SAV + R (bispecific antibody, human IgG1, lambda, L234A L235A)
chain: EVQLVESGGGLVQPGGSLRLSCAASGFTFNTYAMNWVRQAPGKGLEWVGRIRSKYNNYATYYADSVKGRFTISRDDSKNSLYLQMNSLRTEDTAVYYCVRHGNFGHSYVSWFAYWGQGTLVTVSSGGGGSGGGGSGGGGSGGGGSQAVVTQEPSLTVSPGGTVTLTCGSSTGAVTTGHYANWVQQKPGQAPRGLIGGTNKRAPGVPARFSGSLLGGKAALTISGAQPEDEAEYYCALWYSNRWVFGGGTKLTVLEPKSSDKTHTCPPCPAPEAAGGPSVFLFPPKPKDTLMISRTPEVTCVVVDVSHEDPEVKFNWYVDGVEVHNAKTKPREEQYNSTYRVVSVLTVLHQDWLNGKEYKCKVSNKALPASIEKTISKAKGQPREPQVYTLPPSREEMTKNQVSLSCAVKGFYPSDIAVEWESNGQPENNYKTTPPVLDSDGSFFLVSKLTVDKSRWQQGNVFSCSVMHEALHNRYTQKSLSLSPGK
heavy: QMQLQESGPGLVKPSETLSLTCSVSGASISDSYWSWIRRSPGKGLEWIGYVHKSGDTNYNPSLKSRVHLSLDTSKNQVSLSLTGVTAADSGKYYCARTLHGRRIYGIVAFNEWFTYFYMDVWGTGTQVTVSSASTKGPSVFPLAPSSKSTSGGTAALGCLVKDYFPEPVTVSWNSGALTSGVHTFPAVLQSSGLYSLSSVVTVPSSSLGTQTYICNVNHKPSNTKVDKKVEPKSCDKTHTCPPCPAPEAAGGPSVFLFPPKPKDTLMISRTPEVTCVVVDVSHEDPEVKFNWYVDGVEVHNAKTKPREEQYNSTYRVVSVLTVLHQDWLNGKEYKCKVSNKALPASIEKTISKAKGQPREPQVYTLPPSREEMTKNQVSLWCLVKGFYPSDIAVEWESNGQPENNYKTTPPVLDSDGSFFLYSKLTVDKSRWQQGNVFSCSVMHEALHNHYTQKSLSLSPGK
light: not shown
Turning to B1, the EC50 came out at 0.04 µg/mL in test [1]; 0.05 µg/mL in test [2]; 0.02 µg/mL in test [3]; 0.08 µg/mL in test [4]; 0.04 µg/mL in test [5]; 0.02 µg/mL in test [6]. For the same molecule, the EC50 in test [7] amounted to 0.03 µg/mL; in test [8] it was 0.06 µg/mL.

B2: hPGT121.66 AAS + W/huSP34.3.13scFv AAS + SAV + R (bispecific antibody, human IgG1, lambda, L234A L235A)
chain: EVQLVESGGGLVQPGGSLRLSCAASGFTFNTYAMNWVRQAPGKGLEWVGRIRSKYNNYATYYADSVKGRFTISRDDSKNSLYLQMNSLRTEDTAVYYCVRHGNFGHSYVSWFAYWGQGTLVTVSSGGGGSGGGGSGGGGSGGGGSQAVVTQEPSLTVSPGGTVTLTCGSSTGAVTTGHYANWVQQKPGQAPRGLIGGTSNRAPGVPARFSGSLLGGKAALTISGAQPEDEAEYYCALWYSNRWVFGGGTKLTVLEPKSSDKTHTCPPCPAPEAAGGPSVFLFPPKPKDTLMISRTPEVTCVVVDVSHEDPEVKFNWYVDGVEVHNAKTKPREEQYNSTYRVVSVLTVLHQDWLNGKEYKCKVSNKALPASIEKTISKAKGQPREPQVYTLPPSREEMTKNQVSLSCAVKGFYPSDIAVEWESNGQPENNYKTTPPVLDSDGSFFLVSKLTVDKSRWQQGNVFSCSVMHEALHNRYTQKSLSLSPGK
heavy: QMQLQESGPGLVKPSETLSLTCSVSGASISDSYWSWIRRSPGKGLEWIGYVHKSGDTNYNPSLKSRVHLSLDTSKNQVSLSLTGVTAADSGKYYCARTLHGRRIYGIVAFNEWFTYFYMDVWGTGTQVTVSSASTKGPSVFPLAPSSKSTSGGTAALGCLVKDYFPEPVTVSWNSGALTSGVHTFPAVLQSSGLYSLSSVVTVPSSSLGTQTYICNVNHKPSNTKVDKKVEPKSCDKTHTCPPCPAPEAAGGPSVFLFPPKPKDTLMISRTPEVTCVVVDVSHEDPEVKFNWYVDGVEVHNAKTKPREEQYNSTYRVVSVLTVLHQDWLNGKEYKCKVSNKALPASIEKTISKAKGQPREPQVYTLPPSREEMTKNQVSLWCLVKGFYPSDIAVEWESNGQPENNYKTTPPVLDSDGSFFLYSKLTVDKSRWQQGNVFSCSVMHEALHNHYTQKSLSLSPGK
light: not shown
Consider B2, for which the half-maximal effective concentration (EC50) in test [1] was 0.09 µg/mL; in test [2] it was 0.1 µg/mL; in test [3], 0.06 µg/mL; in test [4], 0.21 µg/mL; in test [5], 0.11 µg/mL; in test [6], 0.08 µg/mL. For the same molecule, the EC50 was 0.07 µg/mL in test [7] and 0.14 µg/mL in test [8].

B3: hPGT121.66 AAS + W/huSP34.13.8 scFv AAS + SAV + R (bispecific antibody, human IgG1, lambda, L234A L235A)
chain: EVQLVESGGGLVQPGGSLRLSCAASGFTFSTYAMNWVRQAPGKGLEWVGRIRSKYNNYATYYAASVKGRFTISRDDSKNTLYLQMNSLRTEDTAVYYCVRHGNFGHSYVSWFAYWGQGTLVTVSSGGGGSGGGGSGGGGSGGGGSQAVVTQEPSLTVSPGGTVTLTCGSSTGAVTTGHYANWVQQKPGQAPRGLIGGTNKRAPGVPARFSGSLLGGKAALTISGAQPEDEAEYYCALWYSNRWVFGGGTKLTVLEPKSSDKTHTCPPCPAPEAAGGPSVFLFPPKPKDTLMISRTPEVTCVVVDVSHEDPEVKFNWYVDGVEVHNAKTKPREEQYNSTYRVVSVLTVLHQDWLNGKEYKCKVSNKALPASIEKTISKAKGQPREPQVYTLPPSREEMTKNQVSLSCAVKGFYPSDIAVEWESNGQPENNYKTTPPVLDSDGSFFLVSKLTVDKSRWQQGNVFSCSVMHEALHNRYTQKSLSLSPGK
heavy: QMQLQESGPGLVKPSETLSLTCSVSGASISDSYWSWIRRSPGKGLEWIGYVHKSGDTNYNPSLKSRVHLSLDTSKNQVSLSLTGVTAADSGKYYCARTLHGRRIYGIVAFNEWFTYFYMDVWGTGTQVTVSSASTKGPSVFPLAPSSKSTSGGTAALGCLVKDYFPEPVTVSWNSGALTSGVHTFPAVLQSSGLYSLSSVVTVPSSSLGTQTYICNVNHKPSNTKVDKKVEPKSCDKTHTCPPCPAPEAAGGPSVFLFPPKPKDTLMISRTPEVTCVVVDVSHEDPEVKFNWYVDGVEVHNAKTKPREEQYNSTYRVVSVLTVLHQDWLNGKEYKCKVSNKALPASIEKTISKAKGQPREPQVYTLPPSREEMTKNQVSLWCLVKGFYPSDIAVEWESNGQPENNYKTTPPVLDSDGSFFLYSKLTVDKSRWQQGNVFSCSVMHEALHNHYTQKSLSLSPGK
light: not shown
notes: also called 261
With B3, the EC50 in test [1] was 0.08 µg/mL; in test [2], 0.07 µg/mL; in test [3], 0.07 µg/mL; in test [4] it was 0.2 µg/mL; in test [5], 0.13 µg/mL; in test [6], 0.07 µg/mL. In addition, the EC50 in test [7] worked out at 0.06 µg/mL; in test [8], 0.1 µg/mL.

B4: hPGT121.66 AAS + W/huSP34.34.3 scFv AAS + SAV + R (bispecific antibody, human IgG1, lambda, L234A L235A)
chain: not shown
heavy: QMQLQESGPGLVKPSETLSLTCSVSGASISDSYWSWIRRSPGKGLEWIGYVHKSGDTNYNPSLKSRVHLSLDTSKNQVSLSLTGVTAADSGKYYCARTLHGRRIYGIVAFNEWFTYFYMDVWGTGTQVTVSSASTKGPSVFPLAPSSKSTSGGTAALGCLVKDYFPEPVTVSWNSGALTSGVHTFPAVLQSSGLYSLSSVVTVPSSSLGTQTYICNVNHKPSNTKVDKKVEPKSCDKTHTCPPCPAPEAAGGPSVFLFPPKPKDTLMISRTPEVTCVVVDVSHEDPEVKFNWYVDGVEVHNAKTKPREEQYNSTYRVVSVLTVLHQDWLNGKEYKCKVSNKALPASIEKTISKAKGQPREPQVYTLPPSREEMTKNQVSLWCLVKGFYPSDIAVEWESNGQPENNYKTTPPVLDSDGSFFLYSKLTVDKSRWQQGNVFSCSVMHEALHNHYTQKSLSLSPGK
light: not shown
Turning to B4, the EC50 in test [1] is 1.62 µg/mL; in test [2] it was 1.64 µg/mL; in test [3] it was 0.93 µg/mL; in test [4], 3.52 µg/mL; in test [5] it was 2.35 µg/mL; in test [6], 1.48 µg/mL. Also, the EC50 turned out to be 1.41 µg/mL in test [7] and 1.21 µg/mL in test [8].

B5: hPGT121.66 AAS + W/huSP34.34.10 scFv AAS + SAV + R (bispecific antibody, human IgG1, lambda, L234A L235A)
chain: EVQLVESGGGLVQPGGSLRLSCAASGFTFNTYAMNWVRQAPGKGLEWVGRIRSKYNNYATYYAASVKGRFTISRDDSKNSLYLQMNSLKTEDTAMYYCVRHGNFGHSYVSWFAYWGQGTLVTVSSGGGGSGGGGSGGGGSGGGGSQAVVTQPPSLTVSPGGTVTLTCGSSTGAVTTGHYANWVQQKPGQAPRGLIGGTNKRAPGVPARFSGSLSGGKAALTISGAQPEDEAEYYCALWYSNRWVFGGGTKLTVLEPKSSDKTHTCPPCPAPEAAGGPSVFLFPPKPKDTLMISRTPEVTCVVVDVSHEDPEVKFNWYVDGVEVHNAKTKPREEQYNSTYRVVSVLTVLHQDWLNGKEYKCKVSNKALPASIEKTISKAKGQPREPQVYTLPPSREEMTKNQVSLSCAVKGFYPSDIAVEWESNGQPENNYKTTPPVLDSDGSFFLVSKLTVDKSRWQQGNVFSCSVMHEALHNRYTQKSLSLSPGK
heavy: QMQLQESGPGLVKPSETLSLTCSVSGASISDSYWSWIRRSPGKGLEWIGYVHKSGDTNYNPSLKSRVHLSLDTSKNQVSLSLTGVTAADSGKYYCARTLHGRRIYGIVAFNEWFTYFYMDVWGTGTQVTVSSASTKGPSVFPLAPSSKSTSGGTAALGCLVKDYFPEPVTVSWNSGALTSGVHTFPAVLQSSGLYSLSSVVTVPSSSLGTQTYICNVNHKPSNTKVDKKVEPKSCDKTHTCPPCPAPEAAGGPSVFLFPPKPKDTLMISRTPEVTCVVVDVSHEDPEVKFNWYVDGVEVHNAKTKPREEQYNSTYRVVSVLTVLHQDWLNGKEYKCKVSNKALPASIEKTISKAKGQPREPQVYTLPPSREEMTKNQVSLWCLVKGFYPSDIAVEWESNGQPENNYKTTPPVLDSDGSFFLYSKLTVDKSRWQQGNVFSCSVMHEALHNHYTQKSLSLSPGK
light: not shown
Take B5: the EC50 is 0.07 µg/mL in test [1]; 0.06 µg/mL in test [2]; 0.03 µg/mL in test [3]; 0.16 µg/mL in test [4]; 0.1 µg/mL in test [5]; 0.05 µg/mL in test [6]. Besides, the EC50 in test [7] was 0.06 µg/mL; in test [8] it was 0.08 µg/mL.
